Laboratory results taken from patent US20030129186A1.

Molecular target: p97 receptor (melanotransferrin receptor, MTf-R) on bovine brain capillary endothelial cells (BBCECs) (bovine)
Test: cell-based or functional assay

Work on “recombinant receptor-associated protein (RAP)” yielded a decrease in initial rate of [125I]-p97 transport across BBCEC monolayers with recombinant RAP (25 µg/ml) of over 50%.
